# Laboratory results: the nanobody polyreactivity screen of Harvey et al. (2022)
# Experiment: yeast display, Sf9 membrane polyspecificity reagent, FACS + sequencing; frameworks hold sequencing errors
# Outline: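 Synthetic nanobody libraries on Saccharomyces cerevisiae BJ5465 were galactose-induced for 36–48 hours, stained 1 hour at 4 °C with 10% biotinylated, detergent-solubilized Sf9 membrane reagent and enriched on streptavidin microbeads. FACS then separated cells into low and high (top ~1%) gates by anti-HA (expression) and streptavidin (reagent binding) fluorescence. Genes were colony-PCR amplified, MiSeq 2 × 250 sequenced and CDR-length filtered. A clone's polyreactivity label is that of its gate of origin.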
row,Sequence,polyreactivity (PSR sort gate)
1,QVQLVESGGGLVQAGGSLRLSCAASGRTFWYYTMGWYRQAPGKERELVASITSGSGTTYYADSVKGRFTISRDNAKNTVYLQMNSLKPEDTAVSSCAAKNTPSFFYYDRYDYWGQGTQVTVSS,low polyreactivity
2,QVQLVESGGGLVQAGGSLRLSCAASGRTFYANAMGWYRQAPGKERELVATISSGGRTNYADSVKGRFTISRDNAKNTVYFQMNSLKPEDTAVYYCAKRGPYNRWYGRYDYWGQGTQVTVSS,low polyreactivity
3,QVQLVESGGGLVQAGGSLRLSCAASGRTFYANAMGWYRQAPGKERELVATITRGGSTNYADSVKGRFTISRDNAKNTVYLQMNSLKPEDTAVYYCAARSYTSSHRHYYWGQGTQVTVSS,low polyreactivity
4,QVQLVESGGGLVQAGGSLRLSCAASGRTFYANLMGWYRQAPGKERELVAAITYSGGSTYYADSVKGRFTISRDNATITVYLPMSSLKPEDTAVYYCAADNVSTFYYWGQGTQVTVSS,low polyreactivity
5,QVQLVESGGGLVQAGGSLRLSCAASGRTFYANTMGRYRQAPGTERELVAGITSGGSTSYADSVKGRFTISRDNAKNTVYLQMNSLKPEDTAVYYCAAQFYRYTATGYYADGYWGQGTQVTVSS,low polyreactivity
6,QVQLVESGGGLVQAGGSLRLSCAASGRTFYAYAMGWYRQAPGKDRELVAAITLSTGTTYYADSVKGRFTISRDNAKNTVYLQMNSLKPADTAVYYCAVEGYWYAGWYAMDYWGQGTQVTVSS,low polyreactivity
7,QVQLVESGGGLVQAGGSLRLSCAASGRTFYAYAMGWYRQAPGKERELVAAITKRDGITFYADSVKGRFTISRDNAKNTVYLQMNSLKPEDTAVYYCAATGYVGGIYGHYPRGYWGQGTQVTVSS,high polyreactivity
8,QVQLVESGGGLVQAGGSLRLSCAASGRTFYDNTMGWYRQAPGKERELVAAISRGGSTYADSVKGRFTISRDNAKNTVYLELNSLKPEDTAVYYSNKRSITTEYGYWGQGTQVTVSS,low polyreactivity
9,QVQLVESGGGLVQAGGSLRLSCAASGRTFYFNTMGWDRPAPGKERELVAAIDERGDSTYYADSVKGRFTISRDNAKNTVYLQMNSLKPEDTAVYYCATDWTLEVYYGRYIAKYEYGSWGQGTQVTVSS,low polyreactivity
10,QVQLVESGGGLVQAGGSLRLSCAASGRTFYFYTMGWYRQAPGKERELVAAISWSGGSTYYADSVKGRFTISRDNAKNTVYLQMISLKPEDTAVYYCAASSPWEQSNDQFYYWGQGTQVTVSS,low polyreactivity
11,QVQLVESGGGLVQAGGSLRLSCAASGRTFYGNAMGWYRQAPGKERELVAAINRDGGTYYADSVKGRFTISRDNAKNTVYLQMNSLKPEDTAVYYCNAVKRGIRYGYWGQGTQVTVSS,high polyreactivity
12,QVQLVESGGGLVQAGGSLRLSCAASGRTFYGNAMGWYRQAPGKERELVAAISWSGGGTYYADSVKGRFTISRDNAKNTVYLQMNSLKPEDTAVYYCAAQFGRKGSGVWTRPENYWGQGTQVTVSS,high polyreactivity
13,QVQLVESGGGLVQAGGSLRLSCAASGRTFYGNAMGWYRQAPGKERELVAAISYRTGRTYYADSVKGRFTISRDNAKNTVYLQMNSLKPEDTAVYYCAADLHSRDDYWGQGTKVTVSS,high polyreactivity
14,QVQLVESGGGLVQAGGSLRLSCAASGRTFYGYAMGLYRQAPGKERELGASIRQSAGRTYYADSVKGRFTISRDNAMNTVYLQMNSLNPEDTAVYYCAASIFLRSFYQQGNYWGQGTQVTVSS,high polyreactivity
15,QVQLVESGGGLVQAGGSLRLSCAASGRTFYGYAMGWYRQAPGKEREFVAAINRSGGTTYYADSVKGRFTISRDNAKNTVYLQMNSLKPEDTAVYYCAADYSRIRRWPGYYAYDYWGQGTQVTVSS,high polyreactivity
16,QVQLVESGGGLVQAGGSLRLSCAASGRTFYGYAMGWYRQAPGKEREFVAAINWSGGTTYYADSVKGRFTISRDNAKNTVYLQMNSLKPEDTAVYYCAADYYRIRRWPGYYAYDYWGQGTQVTVSS,high polyreactivity
17,QVQLVESGGGLVQAGGSLRLSCAASGRTFYGYAMGWYRQAPGKEREFVAAITYSGGRTYYADSVKGRFTISRDNAKNTVYLQMNSLKPEETAVYYCNAYYYYVNQGRYEYGYWGQGTQVTVSS,high polyreactivity
18,QVQLVESGGGLVQAGGSLRLSCAASGRTFYGYAMGWYRQAPGKERELVAVITRDGSTNYADSVKGRFTISRDNAKNTVYLQMNSLKPEDTAVYDCAAERLAYRVRWRYNQEDYWGQGTQVTVSS,high polyreactivity
19,QVQLVESGGGLVQAGGSLRLSCAASGRTFYGYTMGWYRQAPGKERELVAAISRNGASTFYADSVKGRFTISRDNAKNTVYLQMNSLKPEDTAVYYCNARSWRHTDTSFEYWGQGTQVTVSS,high polyreactivity
20,QVQLVESGGGLVQAGGSLRLSCAASGRTFYGYTMGWYRQAPGKERELVAAISTGGGSTYYADSVKGRFTISRDNAKNTVYLQMNSLKPEDTEVYYCAARGGSYSFRRYNYWGQGTQVTVSS,high polyreactivity
21,QVQLVESGGGLVQAGGSLRLSCAASGRTFYHNTIGGYRQQPGKERELVAVINDSGTRTYYADSVKGRFTISRDNAKNTVYLQMNSLKPEDTAVYYCAARSYVGGAILGYWGQGTQVTVSS,high polyreactivity
22,QVQLVESGGGLVQAGGSLRLSCAASGRTFYHYTMGWYTQAPGKERELVAAISSGGSTNYADSVKGRFTISRDNAKNTVYLQMNSLKPEDTAVYYCAARYRGWSGGYDYWGQGTQETVSS,high polyreactivity

row,Sequence,polyreactivity (PSR sort gate)
1,QVQLVESGGGLVQAGGSLRLSCAASGRTFYINAMGWYRPEPGKERELVAAISSSGGITYYADSVKGRFTISRDNAKNTVNLQMIRLKPEDTAVYYCNAPNDYSWHYDYWGQGTQVTVSS,low polyreactivity
2,QVQLVESGGGLVQAGGSLRLSCAASGRTFYINAMGWYRQAPGKEREFVAAITDGGDRTYYADSVKGRFTISRDNEKNTVYLQMNSLKPEDTAVYYCAADRGVRYDYWGQGTQVTVSS,low polyreactivity
3,QVQLVESGGGLVQAGGSLRLSCAASGRTFYIYAMGWYRQAPGKERELVAAITYGGGRTFYADSVKGRFTISRDNAKNTVYLQMNSLKPEDTAVYYCAASVRGKRSTYDYWGQGTQVTVSS,high polyreactivity
4,QVQLVESGGGLVQAGGSLRLSCAASGRTFYIYAMGWYRQAPGKERELVAAITYGGGRTFYADSVKGRFTISRDNAKNTVYLQMNSLKPEDTAVYYCAATVRGKRSTYDYWGQGTQVTVSS,high polyreactivity
5,QVQLVESGGGLVQAGGSLRLSCAASGRTFYIYAMGWYRQAPGKERELVAAITYGGGRTFYADSVKGRFTISRDNAKNTVYLQMNSLKPEDTAVYYCARGDFYYHSRYTYYTSDYWGQGTQVTVSS,high polyreactivity
6,QVQLVESGGGLVQAGGSLRLSCAASGRTFYIYAMGWYRQAPGTERELVAAITWSGGTTYYADSVKGRFTISRDNAKNTVYLQMNSLKPEDTAVYYCAADRYGFYLESYYWGQGTQVTVSS,low polyreactivity
7,QVQLVESGGGLVQAGGSLRLSCAASGRTFYKNAMGWYRQAPWKERELVAAISYGGGSTYYADSVKGRFTISRDNAKNTVYLQMNSLKPEDTAVYYCATQLPFRKPWHDYWGQGTQVTVSS,high polyreactivity
8,QVQLVESGGGLVQAGGSLRLSCAASGRTFYKNTMGWYRQAPGKERELVATITRRGGTTYYADSVKGRFTISRDNAKNTVYLQMNSLKPEDTAVYYCAKDASTEKYDYWGQGTQVTVSS,low polyreactivity
9,QVQLVESGGGLVQAGGSLRLSCAASGRTFYKYMGWYRQAPGKERELVAAIRWSGGSTYYADSVKGRFTISRDNAKNTVYLQMNSLKPEDTAVYYCAAGKQAPAVNYGYYYWGQGTQVTVSS,low polyreactivity
10,QVQLVESGGGLVQAGGSLRLSCAASGRTFYLNAMGWYRPAPGKDRELVATITSRAGSTRYADSVKGRFTISRDNAKNTVYLQMNSLKPEDTAVYYCAVRSTDPYRRGPSYYYWGQGTQVTVSS,high polyreactivity
11,QVQLVESGGGLVQAGGSLRLSCAASGRTFYLNAMGWYRQAPGKVRELVAAIRFSGGSTYYADSVKGRFTISRDNAKNTVYLQMNSLKPEDTAVYYCNAGPYHSLYPTVSEYGYWGQGTQVTVSS,low polyreactivity
12,QVQLVESGGGLVQAGGSLRLSCAASGRTFYLYTMGWYRQAPGKERELVAAITGGGRTYYADSVKGRFTISRDNAKNTVYLQMNSLKPEDTAVYYCNADYAYYSYDYWGQGTQVTVSS,low polyreactivity
13,QVQLVESGGGLVQAGGSLRLSCAASGRTFYLYTMGWYRQAPGKERELVAGISWSGGSTYADSVKGRFTISRDNAKNTVYLQMNSLKPEDTAVYYCAAEVYYGYDYWGQGTQVTVSS,low polyreactivity
14,QVQLVESGGGLVQAGGSLRLSCAASGRTFYNYAMGWYRQAPGKERELVAAIDWGSDSTYYADSVKGRFTISRDNAKNTVYLQMNSLKPEDTAVYYCAAYLVSVNSRTYDYWGQGTQVTVSS,low polyreactivity
15,QVQLVESGGGLVQAGGSLRLSCAASGRTFYNYAMGWYRQAPGKERELVAAITRGGSTYYADSVKGRFTISRDNAKNTVYLQMNSLKPEDTAVYYCNAYYYIPFEGRGYSKLDYWGQGTQVTVSS,high polyreactivity
16,QVQLVESGGGLVQAGGSLRLSCAASGRTFYPNAMGWYRQAPGKERELVAGIRSSGDSTYYADSVKGRFTISRDNAKNTVYLQMNSLKPEDTAVYYCNRDLTPSYDYWGQGTQVTVSS,low polyreactivity
17,QVQLVESGGGLVQAGGSLRLSCAASGRTFYPYAMGWYRQAPGKEREFVAAITWTGDSTYYADSVKGRFTISRDNAKNTVYLQMNSLKPEDTAVYYCAADLSSSPYYYGYDYWGQGTQVTVSS,low polyreactivity
18,QVQLVESGGGLVQAGGSLRLSCAASGRTFYPYAMGWYRQAPGKERELVAAIRRSDGSTYYADSVKGRFTISRDNAKNTVYLQMNSLKPEDTAVYYFAAGQGSRNQYYYWGHGTQVTVSS,high polyreactivity
19,QVQLVESGGGLVQAGGSLRLSCAASGRTFYPYAMGWYRQAPGKERELVAAISSSGGSTYYADSVKGRFTISRDNAKNTVYLQRNSLKPEYTPVYYCASYLRPGGNYYWGQGTQVTVSS,high polyreactivity
20,QVQLVESGGGLVQAGGSLRLSCAASGRTFYPYAMGWYRQATGKERELVAAIDYSSATTYYADSVKGRFTISRDNAKNTVYLQMNSLKPEDTAVYYCARVGIGVGWSKLNYWGQGTQVTVSS,low polyreactivity
21,QVQLVESGGGLVQAGGSLRLSCAASGRTFYQNVMGWSRQAPGKERELVAAITWGGGSTYYADSVKGRFTISRDNAKNTVYLQMNSLKPEDTAVYYCNRTFRSRLPTSRGYDYWGQGTQVTVSS,low polyreactivity
